The values that follow come from article PMC3794440 (Biochemistry, 2013).

Where two headings read alike, the source gives them in different places.

Assay [1] concerns the target T1, wild-type Pin1 (Homo sapiens, UniProt Q13526). Put plainly: NMR titration. It counts as binding. Conditions: read-out: equilibrium dissociation constant Kd (WT), 295 K, 16.4 T, 30 mM imidazole-d4 pH 6.6, 5 mM DTT-d10, 30 mM NaCl, 0.03% NaN3, 90% H2O/10% D2O, uncertainties by jack-knife simulations.
A further assay has as its target I28A Pin1 (Homo sapiens, UniProt Q13526, I28A). Kind of assay: NMR titration. It counts as binding. Conditions: read-out: equilibrium dissociation constant Kd (I28A), 295 K, 16.4 T, 30 mM imidazole-d4 pH 6.6, 5 mM DTT-d10, 30 mM NaCl, 0.03% NaN3, 90% H2O/10% D2O, uncertainties by jack-knife simulations.
For assay [2], the target named is T1, wild-type Pin1. Put plainly: chromogenic coupled isomerase assay of Kofron et al., WT. The class given is biochemical. Conditions: chromogenic substrate suc-AEPF-pNA.

Turning to EQPLpTPVTDL [Cdc25C phosphopeptide], the Kd – broadly, a measure of binding affinity in units of concentration – with wild-type Pin1 [1] (residue A140, PPIase domain) is 9.7 ± 2 µM; with wild-type Pin1 [1] (residue G20, WW domain) it was 9.1 ± 0.4 µM; with wild-type Pin1 [1] (residue R14, WW domain), 2.7 ± 0.7 µM; with wild-type Pin1 [1] (residue R54, PPIase domain), 7.8 ± 0.4 µM; with I28A Pin1 (residue G20, WW domain), 43.5 ± 3 µM; with I28A Pin1 (residue R14, WW domain), 48.5 ± 4.9 µM. The Kd with I28A Pin1 (residue R54, PPIase domain) is 110 ± 10 µM.

For the substance “WT: full-length wild-type human Pin1 (WW domain and PPIase domain)”, the “specificity constant kcat/KM (WT)” value with wild-type Pin1 [2] stood at 4250 ± 213 mM^–1 s^–1.
